{
  "source": "patent US20100166722A1",
  "key": {"[1]": {"biological_target": "cognate NY-ESO peptide-MHC presented on peptide-pulsed APCs", "assay": "cell-based or functional assay"}, "[2]": {"biological_target": "biotinylated cognate NY-ESO peptide-HLA-A*0201 complex", "assay": "SPR (Biacore 3000), soluble TCR over immobilised biotinylated pMHC"}},
  "data": [
    {"substance": "full-length wild-type 1G4 NY-ESO TCR expressed on transfected T cells", "values": [
      {"measurement": "IFN-γ release ELISA, CD4+ T cells; peptide pulsing level needed for a significant response", "setting": "[1]", "value": "> 10", "unit": "nM"}
    ]},
    {"substance": "soluble disulfide-linked wild-type 1G4 NY-ESO TCR", "values": [
      {"measurement": "Half-live (T½)", "setting": "[2]", "value": 2.2, "unit": "s"}
    ]}
  ]
}
